This note sets out measurements from paper PMC4534181.

The target in the experiment is wild-type α1-antitrypsin (recombinant) (human) (UniProt P01009). The experiment in a line: native MS; 15 μM α1-antitrypsin incubated with TTAI at peptide:protein molar ratios 0.1:1 to 5:1 for 3 days at 37.5°C in phosphate buffer pH 7.4; exchanged into 200 mM ammonium acetate pH 8; nanoelectrospray, Synapt.
UniProt P01009, sequence (P01009 25-418): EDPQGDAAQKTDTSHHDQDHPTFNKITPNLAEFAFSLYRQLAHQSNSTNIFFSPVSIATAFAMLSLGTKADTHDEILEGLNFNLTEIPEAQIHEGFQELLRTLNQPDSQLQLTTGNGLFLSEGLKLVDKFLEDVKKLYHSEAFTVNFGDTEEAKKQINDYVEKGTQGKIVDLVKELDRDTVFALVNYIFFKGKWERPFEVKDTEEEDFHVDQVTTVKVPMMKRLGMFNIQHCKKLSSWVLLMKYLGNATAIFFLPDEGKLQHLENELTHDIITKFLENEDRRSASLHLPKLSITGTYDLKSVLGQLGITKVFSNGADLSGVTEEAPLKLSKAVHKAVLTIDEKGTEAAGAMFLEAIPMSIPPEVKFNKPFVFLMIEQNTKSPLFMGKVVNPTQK

Take Ac-TTAI-NH2 [reactive loop analogue tetrapeptide Thr-Thr-Ala-Ile (TTAI)]: the stoichiometry N came to 2 copies.

The stoichiometry N is a count of units in the complex or per binding partner.
